{"source": "paper PMC9377591", "key": {"[1]": {"target": "N2 domain of α-catenin, tagged with V5 (Drosophila) (UniProt P35220)", "sequence (P35220 whole entry, the tested form may be a part)": "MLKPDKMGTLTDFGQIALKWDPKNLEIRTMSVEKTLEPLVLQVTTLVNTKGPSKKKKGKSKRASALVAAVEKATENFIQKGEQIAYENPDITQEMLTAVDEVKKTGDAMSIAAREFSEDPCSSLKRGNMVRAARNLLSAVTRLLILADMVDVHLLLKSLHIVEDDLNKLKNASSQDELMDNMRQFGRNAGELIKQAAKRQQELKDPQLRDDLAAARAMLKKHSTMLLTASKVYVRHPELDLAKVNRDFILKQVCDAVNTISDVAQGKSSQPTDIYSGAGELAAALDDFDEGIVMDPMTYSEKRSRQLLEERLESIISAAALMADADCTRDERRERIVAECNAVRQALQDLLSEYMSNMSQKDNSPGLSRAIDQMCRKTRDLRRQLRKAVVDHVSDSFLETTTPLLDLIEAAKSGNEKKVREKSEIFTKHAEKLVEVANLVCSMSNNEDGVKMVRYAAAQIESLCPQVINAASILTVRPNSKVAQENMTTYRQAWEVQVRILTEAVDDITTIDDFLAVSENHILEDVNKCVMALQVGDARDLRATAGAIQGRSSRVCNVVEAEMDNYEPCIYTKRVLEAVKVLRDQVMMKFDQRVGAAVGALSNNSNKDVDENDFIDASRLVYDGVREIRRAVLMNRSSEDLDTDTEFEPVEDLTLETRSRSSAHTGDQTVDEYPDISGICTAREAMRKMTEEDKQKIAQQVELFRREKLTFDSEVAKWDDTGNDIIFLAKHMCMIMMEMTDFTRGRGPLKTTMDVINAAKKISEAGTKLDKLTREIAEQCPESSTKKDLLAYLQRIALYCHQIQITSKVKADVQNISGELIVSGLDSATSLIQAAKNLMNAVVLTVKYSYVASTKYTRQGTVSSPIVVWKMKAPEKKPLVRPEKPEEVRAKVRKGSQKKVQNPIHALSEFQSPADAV", "assay": "co-IP; FLAG-tagged Jub constructs co-expressed with a V5-tagged partner in Drosophila S2 cells; lysis and washes in RIPA buffer (140 mM NaCl, 10 mM Tris-HCl pH 8.0, 1 mM EDTA, 1.0% Triton X-100, 0.1% SDS, 0.1% sodium deoxycholate); precipitated with anti-V5 agarose beads, blotted with anti-FLAG; band intensity normalised to full length Jub"}, "[2]": {"target": "V5-tagged Steppke (Step-V5-His) (Drosophila)", "assay": "co-IP; FLAG-tagged Jub constructs co-expressed with a V5-tagged partner in Drosophila S2 cells; lysis and washes in RIPA buffer (140 mM NaCl, 10 mM Tris-HCl pH 8.0, 1 mM EDTA, 1.0% Triton X-100, 0.1% SDS, 0.1% sodium deoxycholate); precipitated with anti-V5 agarose beads, blotted with anti-FLAG; band intensity normalised to full length Jub"}}, "data": [{"substance": "Jub preLIM+LIM13 (1-570 and 631-718), FLAG-tagged (from UniProt Q9VY77 1-570; Q9VY77 631-718) (domain or fragment)", "values": [{"measurement": "co-immunoprecipitation relative to full length Jub (% of full length)", "setting": "[1]", "result": 50}, {"measurement": "co-precipitation relative to full length Jub (% of full length)", "setting": "[2]", "result": "> 64"}]}, {"substance": "Jub preLIM+LIM12 (1-623 and 693-718), FLAG-tagged (from UniProt Q9VY77 1-623; Q9VY77 693-718) (domain or fragment)", "values": [{"measurement": "co-immunoprecipitation relative to full length Jub (% of full length)", "setting": "[1]", "result": 170}, {"measurement": "co-precipitation relative to full length Jub (% of full length)", "setting": "[2]", "result": "> 64"}]}, {"substance": "Jub preLIM+LIM3 (1-505 and 631-718), FLAG-tagged (from UniProt Q9VY77 1-505; Q9VY77 631-718) (domain or fragment)", "values": [{"measurement": "co-precipitation relative to full length Jub (% of full length)", "setting": "[2]", "result": 30}]}, {"substance": "Jub preLIM+LIM23 (1-505, 571-718), FLAG-tagged (from UniProt Q9VY77 1-505; Q9VY77 571-718) (domain or fragment)", "values": [{"measurement": "co-immunoprecipitation relative to full length Jub (% of full length)", "setting": "[1]", "result": 780}, {"measurement": "co-precipitation relative to full length Jub (% of full length)", "setting": "[2]", "result": "> 64"}]}, {"substance": "Jub-preLIM (1-505), FLAG-tagged (from UniProt Q9VY77 1-505) (domain or fragment)", "values": [{"measurement": "co-immunoprecipitation relative to full length Jub (% of full length)", "setting": "[1]", "result": 24}]}, {"substance": "Jub preLIM+LIM2 (1-505, 571-623, and 693-718), FLAG-tagged (from UniProt Q9VY77 1-505; Q9VY77 571-623; Q9VY77 693-718) (domain or fragment)", "values": [{"measurement": "co-precipitation relative to full length Jub (% of full length)", "setting": "[2]", "result": "> 64"}]}, {"substance": "Jub preLIM+LIM1 (1-559 and 693-718), FLAG-tagged (from UniProt Q9VY77 1-559; Q9VY77 693-718) (domain or fragment)", "values": [{"measurement": "co-precipitation relative to full length Jub (% of full length)", "setting": "[2]", "result": 30}]}]}
